The data set in a line: CD spectroscopy of cell-penetrating peptides (helicity). The following applies: for secondary structure / helix stabilization by CD: 10 mM potassium phosphate, pH 7.4, 20° C.; for helicity ([θ]222/[θ]208): CD spectra.

Where no end group is shown, it is not given here. [ ]: non-standard residue; d: D form. Aib = CC(C)(N)C(=O)O

As to “AUAUARQARRNRQARRNRQARRNAUAUA (A[Aib]A[Aib]ARQARRNRQARRNRQARRNA[Aib]A[Aib]A; not fully specified (C-terminus)) [CPP4]”, the “secondary structure / helix stabilization by CD” value was “helical structure was somewhat stabilized”.

For the sequence QARRNQARRNQARRNQARRN [CPP6], the “secondary structure / helix stabilization by CD” value is “mostly in random coil state”.

On to QARRNQARRNQARRNQARRNQARRN [CPP7], for which the “secondary structure / helix stabilization by CD” value is listed as “mostly in random coil state”.

On to “UAUNARRQUAUNARRQUAUNARRQUAUNARRQUAU ([Aib]A[Aib]NARRQ[Aib]A[Aib]NARRQ[Aib]A[Aib]NARRQ[Aib]A[Aib]NARRQ[Aib]A[Aib]-NH2) [CPP18]”, for which the “helicity ([θ]222/[θ]208)” value is 0.72.

In the case of “UAUNRARQUAUNRARQUAUNRARQUAUNRARQUAU ([Aib]A[Aib]NRARQ[Aib]A[Aib]NRARQ[Aib]A[Aib]NRARQ[Aib]A[Aib]NRARQ[Aib]A[Aib]-NH2) [CPP17]”, the “helicity ([θ]222/[θ]208)” value is 0.78.

Consider “UAUNRRAQUAUNRRAQUAUNRRAQUAUNRRAQUAU ([Aib]A[Aib]NRRAQ[Aib]A[Aib]NRRAQ[Aib]A[Aib]NRRAQ[Aib]A[Aib]NRRAQ[Aib]A[Aib]-NH2) [CPP16]”, for which the “helicity ([θ]222/[θ]208)” value is recorded as 0.66.

Turning to “UAUQARRNUAUQARRNUAUQARRNUAUQARRNUAUQARRNUAU ([Aib]A[Aib]QARRN[Aib]A[Aib]QARRN[Aib]A[Aib]QARRN[Aib]A[Aib]QARRN[Aib]A[Aib]QARRN[Aib]A[Aib]; not fully specified) [CPP13]”, the “secondary structure / helix stabilization by CD” value is on record as “not further increased”.

Take “UAUQRARNUAUQRARNUAUQRARNUAUQRARNUAU ([Aib]A[Aib]QRARN[Aib]A[Aib]QRARN[Aib]A[Aib]QRARN[Aib]A[Aib]QRARN[Aib]A[Aib]-NH2; not fully specified) [CPP14]”: the “helicity ([θ]222/[θ]208)” value is recorded as 0.81.

With “UAUQRRANUAUQRRANUAUQRRANUAUQRRANUAU ([Aib]A[Aib]QRRAN[Aib]A[Aib]QRRAN[Aib]A[Aib]QRRAN[Aib]A[Aib]QRRAN[Aib]A[Aib]-NH2; not fully specified) [CPP15]”, the “helicity ([θ]222/[θ]208)” value is on record as 0.66.

Take “UAURQARRNUAURQARRNUAURQARRNUAURQARRNUAU ([Aib]A[Aib]RQARRN[Aib]A[Aib]RQARRN[Aib]A[Aib]RQARRN[Aib]A[Aib]RQARRN[Aib]A[Aib]; not fully specified (C-terminus)) [CPP5]”: the “secondary structure / helix stabilization by CD” value is on record as “helical structure was somewhat stabilized”.

The values above are taken from US20240368230A1, “CELL-PENETRATING PEPTIDES COMPRISING MULTIPLE 5-MER ALPHA-HELIX FRAGMENTS AND USES THEREOF” (ArtProBio Co., Ltd., priority 2023, published 2024).
